In patent US20190352352A1:
Values joined by “and” are separate entries in the source; they are usually repeats but may differ in a detail not shown here. Equal entries are not always repeated.

Tests used:
[1] = biological target: TGase-polymerized intact casein (CN-TG); experiment: casein-specific ELISA kit
[2] = biological target: TG polymers of chymotryptic WPI hydrolysate (chymotryptic-WPIH-TG); experiment: β-lactoglobulin-specific competitive ELISA kit
[3] = biological target: TG polymers of thermolysin WPI hydrolysate (thermolysin-WPIH-TG); experiment: β-lactoglobulin-specific competitive ELISA kit
[4] = biological target: TGase-polymerized native WPI (WPI-TG); experiment: β-lactoglobulin-specific competitive ELISA kit
[5] = biological target: chymotryptic hydrolysate of WPI (chymotryptic-WPIH); experiment: β-lactoglobulin-specific competitive ELISA kit
[6] = biological target: repolymerized tryptic WPI hydrolysate (tryptic-WPIH-TG); experiment: β-lactoglobulin-specific competitive ELISA kit
[7] = biological target: thermolysin hydrolysate of WPI (thermolysin-WPIH); experiment: β-lactoglobulin-specific competitive ELISA kit
[8] = biological target: tryptic hydrolysate of WPI (tryptic-WPIH); experiment: β-lactoglobulin-specific competitive ELISA kit
[9] = biological target: native WPI digests (peptides released during simulated gastric and duodenal digestion of native WPI); experiment: β-lactoglobulin-specific competitive ELISA kit, time course of in vitro digestion
[10] = biological target: thermolysin-WPIH-TG polymer digest (peptides released during simulated gastric and duodenal digestion); experiment: as above

Row | immunoreactivity (% of casein control) (% of casein control) [1] | immunoreactivity (% of native WPI control) (% of native WPI control) [2] | immunoreactivity (% of native WPI control) (% of native WPI control) [3] | immunoreactivity (% of native WPI control) (% of native WPI control) [4] | immunoreactivity (% of native WPI control) (% of native WPI control) [5] | immunoreactivity (% of native WPI control) (% of native WPI control) [6] | immunoreactivity (% of native WPI control) (% of native WPI control) [7] | immunoreactivity (% of native WPI control) (% of native WPI control) [8] | immunoreactivity (%) [9] [%] | immunoreactivity (%) [10] | Substance
1 | 70 | – | – | – | – | – | – | – | – | – | antibody of the AgraQuant F.A.S.T Casein ELISA test kit (Romer Labs Inc.)
2 | – | 44 | 6 | 78 | 83 | 29 to 31 | 18 | 29 | 5 to 20 | 5% and < 5% | antibody of the … β-lactoglobulin test kit (β-lactoglobulin-specific competitive ELISA kit, R-Biopharm AG)
